According to the DeepSol protein solubility set:

test: soluble on expression in E. coli; label from the status in PepcDB or PDB records

| Sequence | soluble on expression in E. coli |
| --- | --- |
| MDTEPIQIDSDDSFDAGAPTSSHTMDRKSIIEKYQKLKEESKKLDDLAVEVRSLFMICKQMEECYTKRIDRIVATYGEIRYLHDGTILLLVTIHNITNQPMIDWVISINPTSIFPNSSSSCCQTINVGSLLPGIRKTFQCQLTCKDPPVLLQLSLLRTYQLGGIVKCFKVKLDPILVTAWNQAQRVERKNMETSFTSTIRLPNSLINLLSGSPDTVISVPQVFKSILNVPNVQEDHIVIKMSSAFVVGATGAVGSELVKLLAESTKFSKVVVLARRPVDGATGDKLIQKTVDFDKLEENAEDIQGVDVAFCALGTTRGKSGADGFYKVDHDYVMSAAKMAKENGVKQFVLVSSVGADASSRFLYPKTKGEVEKEIGELNFEKFVIMRPGLIEAKRPEFRIGEFLGKIVTAPLGLFSNRFSSSATAIAQAMINATQTEETGNQIWNNSKIVEESKKYTA | not soluble |
| MDTLDGLKTVVAVVETNSFTAASDRLGISKALVSKYVGEVENQLGIRLFNRTTRQLALTDSGRRYYEEAIILLEQFSAMVDNVTGEQTAPRGLLRISAPVTFGEMRLAPLLPKFIALYPDLTVELVLTNGAIDMLEEGIDVRLRIGGVDDSNMIARHLTNFPLVLSASPNYAQTQGLPTTPEQLGEHHCIIDSNFRIGKQWPFISPKGRAETINVQSGLAVNSPQAVREIAIADGGIAMTPNFIVEDALADGRLLRVMPEYTTLEFGLFAIYPHRKYVARKVRCFIDFVLEQFSKK | not soluble |
| MDTLRYLTGYPPAVLEQVRALIAQDKLGAVLAQRYPERHTVRTDRQLYDYVKEMKERYMRSSPTLHKAIYDNHLQVVKHALGTHTAISRVHGSRLKASREIRIAAIFRDAPAPFLQMIVAHELAHLKEPEHDKAFYQLCHHMAPDYHQLEFDLRLYLTQLALSPRDLEHHHHHH | soluble |
| MDTMAKINQFRDERNWRPHHNEKDLALSICLEAAELLELFQWKTAEEGIKQEERIKEELADVLIYSYMMADNLGFDLDEIIEEKLKKNALKYPVPH | not soluble |
| MDTNWLYVLLQKSTADPLERLKLGNVILNEVSQRKVSPHPKLVNDFLDVMSGWLTGSNFKVSTIGLEILDAALRTSPDVLASYYFDRCSVLIERMGDAKVQVREMAINLCLQLAYLENSSPVMLLDRLCVPGTGFQHKQWLVKVGSLNILREFLSSSFALVIQQAITLIPQLCRLTNDPNSEVRDVSTQCLIDLMVYGGKPIVAKIAATRLINEQKMATLLQRYQTTVATRGDLPPKHTITMETTPAQPSRNSLLRRSLRSPAKIIHPSASTTSFTSSARLSTPPRPTTTAAQSLSLAPQTPSPLSLPSPSGGQMSRSRDLTRSSLRAPAGISISRYRSSSCAPAAQCAITLDDFKKSFTAVPKTTIYSNHDIREKLELANLVLRNANEDWSKRANQLKLIRSIIINCDENIDRSLLISIINELADALEFSIRDLRSQIVREAAVTCSFLFETFGMEVKNVAECVLPAALAQVAVSTKVIASSAATLTVFIVQKIQTRQIFTTLSELSSSKAKEQRRQLAVVLETLIASWDLKSKQPILKQIAQLVQNAICDADGETRVAGRKAFAKLEQLHGTTADLIFRELDPAKQKMLRDGVSSSSSSLNSDRDNNNQKQQPNQQNISQKFLSQRSASAVDKSIQLSVKPQTTAIPSRPTAMPMNNRLPKSSTSTSFSAVRSSGYGQNQSTTPNRAKTPSDGFAGSSPHYTNGNNNNKSSSSSPSTSTHQTPIQRVASNLGSSSFVASLTQEQANCLQNAMNTAKDEMSKNNEDDEFLLDEIRKTPPKEVPRSYNNSPFKPSNLDSSVHRSYNNNSPFRPSSGSVGSGSNGSVQSIEHILKACTSSSLNEKRDAIVNLNQVITDPNLCQLECKNIGDTLSRLLAEGNNTLIISILDTISIFIKFQYKKLDNWLKLALGKLFAKMGADALPNVKSALSSTQKMFLTTFDPTFQLKAVCDFMCDPVHLLSPKSRLALLEYICLLFEEIWPEDPRCLERQTHLDTPYTRAAIRKMFAWMFDPRIGAILMPACERLVCALFALNAADFTMIFGELPSECRDWAYRILQLNGQQNNQKPIEKEKERFISNNNYKPCPLDNEEIEKPIMKTTYSTYESTRKEYSQTERIATENQYSTPPPPDYRTSTAHLAKNHVDQAAYIRNQLDAIRDFEKADKLNEAMANLHGMMCEGSFTLWNQFFDELLDSIYQILSTFSQSIRKKLALRILQKMCTAQATKLFDSTEIAISKVLQCACTSDDNTMGVAAEDCLRILASHLPLTRVVLISRRILSQDDDDQRGVLILKMLTRMFQDIDIEELHLIVNDVAPCFVTAYESMSSTVRKCAVFGLVALVQRVGMQRMEPHLRTLNASKLNLIDLYVGRAKSSESGASSN | not soluble |
| MDTTIGVIGNKVVHVIKENDSVKTAAEEMKKHNLGALVVIDDNDKIVGIITERDIVKVVAEGKLDAKVKDYMTRNVIGVTEDTPITDALEIMLDHGFRHLPIIGKDGKVIGIVSIRDLSKAILDPHFFQFKKEAADVKGSGYVCPVCGMEIDEYGYCGCGAGSG | soluble |
| MDVQDLKPPKPLYLERVGFRGVRRRALLETPEGPVTLDLELDVFVDLDRSKRGVHLSRNIEAVEAVVSERRARSIEGLLRSIAKELLSRHGYAEKATVRARTRYYIDLEAAGVKGREPVDVAVTVSLTRSGGERWRVAVSVKGMTVCPSAQSTIAEAEGISDPSRAPSHSQKVLLKGTVDTGKVMVRIEDLARALLQSFSAPTFTLLKKPQEARLILEAFTRPMFVEDVVREAAWRIAAIPYIPGEALLQVEAVSLESIHPHDLVAMLRSRVSEVRSLASRSV | not soluble |
| MDYIKGIAFDLYGTLFDVHSVVGRCDEAFPGRGREISALWRQKQLEYTWLRSLMNRYVNFQQATEDALRFTCRHLGLDLDARTRSTLCDAYLRLAPFSEVPDSLRELKRRGLKLAILSNGSPQSIDAVVSHAGLRDGFDHLLSVDPVQVYKPDNRVYELAEQALGLDRSAILFVASNAWDATGARYFGFPTCWINRTGNVFEEMGQTPDWEVTSLRAVVELFETAAGKAEKG | soluble |
| MDYKDDDDKLVDSLRACVFDAYGTLLDVHSAVMRNADEVGASAEALSMLWRQRQLEYSWTRTLMHQYADFWQLTDEALTFALRTYHLEDRKGLKDRLMSAYKELSAYPDAAETLEKLKSAGYIVAILSNGNDEMLQAALKASKLDRVLDSCLSADDLKIYKPDPRIYQFACDRLGVNPNEVCFVSSNAWDLGGAGKFGFNTVRINRQGNPPEYEFAPLKHQVNSLSELWPLLAKNVTKAA | soluble |
| MDYKTCPFHLVFLYSINPREPRLRKKIYYMMETESRLVVSHALIMYDYNQEGELPRMHGGYLKRFAKRATKRPDPFFQPTQIHDIDNDVSDMSECEKECPFAVPAQAADDGSLYLQLLDMEFWNDRNRQLHFLVNKPSLIESLGCLNNRVPALPPATTGKAAFVFFIDGLEVDARNLTCDGLVPWSENTSTNPHGITKRPKSAKQALALNREGQLRIWKTPSSHRSDLIEFQLHVYTATLPRCPRLRKKVTYVLKNGHQIGNAMIIYWYTEPGEMPAPVNVSTMSSAQEYSLQRLPPHIREDVLRLLARMTPAEVAKVILEKYGIQVNTKMLYYVRRREIMAATDGIRDAEDDHDPYELKNEMIVSAAAGDFVDDWTTDTAGASAEASEGGSRKKNVHLEEMLDERELQVSHTEEIQQPSSSQQQIQLPYRKAKYQEPKNFGQQSSGLPLSQSGMARGTSRNEALFRIAKNSFGSATDNETFDLLFKMLFEKSEHRLLQIVNHTFGVEIMAGEEMDNGEMHLHMAPDGAIVEEIVEEEVIGTVGDDVNLEEEVHENEPKVYTGEKQINDVLEQVVVEEPNHHDDHPPHELLEEDALVNPDDVIVDPNQLIIHDDDDQRQQNIQ | not soluble |
| MDYQTFEKVNKFINVKAYIFFLTQELKQQYKLSLKELLILAYFYYKNEHSISLKEIIGDILYKQSDVVKNIKSLSKKGFINKSRNEADERRIFVSVTPIQRKKIACVINELDKIIKGFNKERDYIKYQWAPKYSKEFFILFMNIMYSKDFLKYRFNLTFLDLSILYVISSRKNEILNLKDLFESIRFMYPQIVRSVNRLNNKGMLIKERSLADERIVLIKINKIQYNTIKSIFTDTSKILKPRKFFF | not soluble |
| MEAQAQGLLETEPLQGTDEDAVASADFSSMLSEEEKEELKAELVQLEDEITTLRQVLSAKERHLVEIKQKLGMNLMNELKQNFSKSWHDMQTTTAYKKTHETLSHAGQKATAAFSNVGTAISKKFGDMSYSIRHSISMPAMRRK | soluble |
| MEARTTDLSDLYPEGEALPMVFKSFGGRARFAGRVRTLRVFEDNALVRKVLEEEGAGQVLFVDGGGSLRTALLGGNLARRAWEKGWAGVVVHGAVRDTEELREVPIGLLALAATPKKSAKEGKGEVDVPLKVLGVEVLPGSFLLADEDGLLLLPEPPSGVRSGG | soluble |
